{
  "source": "patent US11491212",
  "proteins": {"B1": {"name": "FIXa-D203N/F205T/R318Y (mature FIX numbering) (protein)", "chain 1": "not shown", "chain 2": "not shown"}, "B2": {"name": "FIXa-D203N/F205T/K228N (mature FIX numbering) (protein)", "chain 1": "not shown", "chain 2": "not shown"}, "B3": {"name": "FIXa-Y155F/R318Y/R338E/R403E (mature FIX numbering) (protein)", "chain 1": "not shown", "chain 2": "not shown"}, "B4": {"name": "FIXa-R318Y/R338E/R403E (mature FIX numbering) (protein)", "chain 1": "not shown", "chain 2": "not shown"}, "B5": {"name": "FIXa-D85N/K228N/R318Y/R338E/R403E/E410N (protein)", "chain 1": "not shown", "chain 2": "not shown"}, "B6": {"name": "FIXa-Y155F/I251S/R318Y/R338E/R403E/E410N (protein)", "chain 1": "not shown", "chain 2": "not shown"}, "B7": {"name": "FIXa-D203N/F205T/R338E/R403E (mature FIX numbering) (protein)", "chain 1": "not shown", "chain 2": "not shown"}, "B8": {"name": "FIXa-D203N/F205T/R338E (mature FIX numbering) (protein)", "chain 1": "not shown", "chain 2": "not shown"}, "B9": {"name": "FIXa-K228N/R318Y/R338E/R403E/E410N (protein)", "chain 1": "not shown", "chain 2": "not shown"}, "B10": {"name": "FIXa-D104N/K106S/I251S/R318Y/R338E/R403E/E410N (protein)", "chain 1": "not shown", "chain 2": "not shown"}, "B11": {"name": "FIXa-D203N/F205T/R338A (mature FIX numbering) (protein)", "chain 1": "not shown", "chain 2": "not shown"}, "B12": {"name": "FIXa-D203N/F205T/E410N (mature FIX numbering) (protein)", "chain 1": "not shown", "chain 2": "not shown"}, "B13": {"name": "FIXa-I251S/R318Y/R338E/R403E/E410N (protein)", "chain 1": "not shown", "chain 2": "not shown"}, "B14": {"name": "FIXa-Y155F/R338E/R403E/E410N (mature FIX numbering) (protein)", "chain 1": "not shown", "chain 2": "not shown"}},
  "data": [
    {"biological_target": "Factor X (FX), P00742", "sequence (P00742 whole entry, looked up)": "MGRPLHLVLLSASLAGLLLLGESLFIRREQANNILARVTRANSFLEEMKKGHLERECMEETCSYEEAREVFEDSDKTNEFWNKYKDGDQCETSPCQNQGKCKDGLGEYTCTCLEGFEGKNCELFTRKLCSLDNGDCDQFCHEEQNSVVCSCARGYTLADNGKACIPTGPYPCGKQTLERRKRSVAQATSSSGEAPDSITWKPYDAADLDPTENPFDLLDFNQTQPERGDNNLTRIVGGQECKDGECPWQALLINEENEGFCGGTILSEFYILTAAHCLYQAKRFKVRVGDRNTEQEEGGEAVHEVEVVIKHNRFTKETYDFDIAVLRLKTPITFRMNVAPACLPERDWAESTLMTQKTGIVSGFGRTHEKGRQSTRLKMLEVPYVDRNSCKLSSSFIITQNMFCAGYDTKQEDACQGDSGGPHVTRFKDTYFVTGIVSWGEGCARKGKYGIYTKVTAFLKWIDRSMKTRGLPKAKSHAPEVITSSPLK", "units": {"% of WT kcat/KM": "%", "% of WT kcat/KM (against Catalyst Biosciences WT FIXa)": "%", "kcat/KM for activation of FX by FIXa in the Xase complex (FVIIIa, PC/PS vesicles, Ca2+), fluorogenic Spectrafluor FXa read-out": "M⁻¹ s⁻¹", "kcat/KM": "M⁻¹ s⁻¹"}, "values": [
      {"protein": "B1", "% of WT kcat/KM": 44},
      {"protein": "B2", "% of WT kcat/KM": 30},
      {"protein": "B3", "% of WT kcat/KM": 189},
      {"protein": "B4", "% of WT kcat/KM": 134},
      {"protein": "B5", "% of WT kcat/KM (against Catalyst Biosciences WT FIXa)": 336, "kcat/KM for activation of FX by FIXa in the Xase complex (FVIIIa, PC/PS vesicles, Ca2+), fluorogenic Spectrafluor FXa read-out": "1.6e+08"},
      {"protein": "B6", "% of WT kcat/KM (against Catalyst Biosciences WT FIXa)": 363, "kcat/KM for activation of FX by FIXa in the Xase complex (FVIIIa, PC/PS vesicles, Ca2+), fluorogenic Spectrafluor FXa read-out": "1.7e+08"},
      {"protein": "B7", "% of WT kcat/KM": 41},
      {"protein": "B8", "% of WT kcat/KM": 228},
      {"protein": "B9", "% of WT kcat/KM (against Catalyst Biosciences WT FIXa)": 339, "kcat/KM for activation of FX by FIXa in the Xase complex (FVIIIa, PC/PS vesicles, Ca2+), fluorogenic Spectrafluor FXa read-out": "1.6e+08"},
      {"protein": "B10", "% of WT kcat/KM (against Catalyst Biosciences WT FIXa)": 263, "kcat/KM for activation of FX by FIXa in the Xase complex (FVIIIa, PC/PS vesicles, Ca2+), fluorogenic Spectrafluor FXa read-out": "1.2e+08"},
      {"protein": "B11", "% of WT kcat/KM": 135},
      {"protein": "B12", "% of WT kcat/KM": 91},
      {"protein": "B13", "% of WT kcat/KM (against Catalyst Biosciences WT FIXa)": 334, "kcat/KM for activation of FX by FIXa in the Xase complex (FVIIIa, PC/PS vesicles, Ca2+), fluorogenic Spectrafluor FXa read-out": "1.5e+08"},
      {"protein": "B14", "% of WT kcat/KM": 401, "kcat/KM": "1.8e+08"}
    ]}
  ]
}
